These results are taken from publication PMC3026807.

In this data set the target is His221 (UniProt position 221, RKPFYHAFSFM). The experiment in a line: electrophysiology. To be noted: Symmetrical high K+. Bath: standard solution with Na+ replaced equimolarly by K+ (140 mM extracellular K+). Pipette: 140 mM KCl.; 10 mM Hepes/Tris; MES for pH 5.0-6.5, AMPSO for pH 8.5-9.0, CAPS for pH 9.5-11.0; pHo gating in high symmetrical K+ (needed to restore currents of the double mutant).

In general, pKa refers to the negative logarithm of the acid dissociation constant. The low end stands for a group that gives up its proton readily, the high end for a group that holds its proton tightly.

In turn, “TASK-3 (K2P9.1, KCNK9) H98N/V221H double mutant (Cavia porcellus; H98N;V221H)” displayed a pKa of 6.86±0.11.
